Data: patent US20210130436A1 (published 2021)
Positions count from the first letter of the chain named. In names and notes the source's numbering stands.

T1: TIGIT (UniProt Q495A1 22-244)
T1 construct: whole, on cells
T1 sequence (looked up): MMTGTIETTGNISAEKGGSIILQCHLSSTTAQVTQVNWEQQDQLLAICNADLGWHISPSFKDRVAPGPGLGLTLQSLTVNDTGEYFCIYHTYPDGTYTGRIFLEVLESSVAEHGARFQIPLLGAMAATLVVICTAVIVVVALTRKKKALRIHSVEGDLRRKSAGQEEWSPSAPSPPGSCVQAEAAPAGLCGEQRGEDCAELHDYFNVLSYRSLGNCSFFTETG

T2: CD226 (UniProt Q15762 19-336)
T2 construct: whole, on cells
T2 sequence (looked up): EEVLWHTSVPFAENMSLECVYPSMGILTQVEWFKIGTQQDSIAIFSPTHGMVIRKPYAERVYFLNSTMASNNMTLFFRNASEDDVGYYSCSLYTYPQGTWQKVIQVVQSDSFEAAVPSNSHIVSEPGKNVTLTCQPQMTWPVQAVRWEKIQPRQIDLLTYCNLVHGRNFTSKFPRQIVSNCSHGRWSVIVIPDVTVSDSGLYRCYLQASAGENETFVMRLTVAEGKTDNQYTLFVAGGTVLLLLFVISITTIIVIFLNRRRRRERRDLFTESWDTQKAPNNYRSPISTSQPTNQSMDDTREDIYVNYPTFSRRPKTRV

B1: CD80 E35D/D46V/M47V/N48K/V68M IgV-Fc (Fc fusion, not shown: small tags and cut ends; a dimerising Fc or GST)
chain: VIHVTKEVKEVATLSCGHNVSVEELAQTRIYWQKDKKMVLTMMSGVVKIWPEYKNRTIFDITNNLSIMILALRPSDEGTYECVVLKYEKDAFKREHLAEVTLSVKAD
B2: CD80 E35D/M47V/N48K/V68M/L85Q IgV-Fc (Fc fusion, not shown: small tags and cut ends; a dimerising Fc or GST)
chain: B1 chain with V46D, L85Q
B3: CD80 M47V/N48K/V68M IgV-Fc (Fc fusion, not shown: small tags and cut ends; a dimerising Fc or GST)
chain: B1 chain with D35E, V46D
B4: CD80 N48K/V68M IgV-Fc (Fc fusion, not shown: small tags and cut ends; a dimerising Fc or GST)
chain: B1 chain with D35E, V46D, V47M
B5: CD80 E35D/M47V/V68M/L85Q/K89N IgV-Fc (Fc fusion, not shown: small tags and cut ends; a dimerising Fc or GST)
chain: B1 chain with V46D, K48N, L85Q, K89N
B6: CD80 E35D/M47V/N48K/K89N IgV-Fc (Fc fusion, not shown: small tags and cut ends; a dimerising Fc or GST)
chain: B1 chain with V46D, M68V, K89N
B7: CD80 E35D/N48K/K89N IgV-Fc (Fc fusion, not shown: small tags and cut ends; a dimerising Fc or GST)
chain: B1 chain with V46D, V47M, M68V, K89N
B8: CD80 E35D/D46V/M47V/V68M/L85Q IgV-Fc (Fc fusion, not shown: small tags and cut ends; a dimerising Fc or GST)
chain: B1 chain with K48N, L85Q
B9: CD80 M47V/N48K/K89N IgV-Fc (Fc fusion, not shown: small tags and cut ends; a dimerising Fc or GST)
chain: B1 chain with D35E, V46D, M68V, K89N
B10: CD155 S42G/S52Q/L104E/G111R variant IgV-Fc fusion (Fc fusion, not shown: a dimerising Fc or GST)
chain: WPPPGTGDVVVQAPTQVPGFLGDSVTLPCYLQVPNMEVTHVGQLTWARHGEQGSMAVFHQTQGPSYSESKRLEFVAARLGAELRNASLRMFGLRVEDEGNYTCEFVTFPQRSRSVDIWLRVL
B11: variant CD80 IgV-Fc E35D/M47V/V68M/L85M (Fc fusion, not shown: small tags and cut ends; a dimerising Fc or GST)
chain: B1 chain with V46D, K48N, L85M
B12: variant CD80 IgV-Fc E35D/D46E/M47L/V68M/T79M/L85M (Fc fusion, not shown: small tags and cut ends; a dimerising Fc or GST)
chain: B1 chain with V46E, V47L, K48N, T79M, L85M
B13: CD80 IgV-Fc T13R/Q27L/Q33L/E35D/T41S/M47V/N48K/V68M/L85M (Fc fusion, not shown: a dimerising Fc or GST)
chain: B1 chain with T13R, Q27L, Q33L, T41S, V46D, L85M
B14: CD80 IgV-Fc T13R/Q33R/E35D/M38I/M47L/V68M (Fc fusion, not shown: a dimerising Fc or GST)
chain: B1 chain with T13R, Q33R, M38I, V46D, V47L, K48N
B15: CD80 IgV-Fc T13R/Q33L/E35D/M47L/V68M/L85M (Fc fusion, not shown: a dimerising Fc or GST)
chain: B1 chain with T13R, Q33L, V46D, V47L, K48N, L85M
B16: CD80 IgV-Fc T13R/Q33R/E35D/M47L/V68M/L85M (Fc fusion, not shown: a dimerising Fc or GST)
chain: B1 chain with T13R, Q33R, V46D, V47L, K48N, L85M
B17: CD80 IgV-Fc T13R/Q33R/E35D/M38I/M47L/V68M/E95V/L97Q (Fc fusion, not shown: a dimerising Fc or GST)
chain: B1 chain with T13R, Q33R, M38I, V46D, V47L, K48N, E95V, L97Q
B18: CD80 IgV-Fc T13R/Q33L/E35D/M47V/T62S/V68M/L85M (Fc fusion, not shown: a dimerising Fc or GST)
chain: B1 chain with T13R, Q33L, V46D, K48N, T62S, L85M
B19: CD80 IgV-Fc T13R/Q33R/E35D/M38I/M47L/V68M/L85M (Fc fusion, not shown: a dimerising Fc or GST)
chain: B1 chain with T13R, Q33R, M38I, V46D, V47L, K48N, L85M
B20: CD80 IgV-Fc T13R/Q33R/E35D/M47L/V68M (Fc fusion, not shown: a dimerising Fc or GST)
chain: B1 chain with T13R, Q33R, V46D, V47L, K48N

Each binder was assayed against T3, human CTLA4 expressed on CHO cells (human, UniProt P16410 36-223) (assay: flow cytometry, CHO cells stably expressing CTLA4; MFI relative to WT CD80 ECD-Fc (Abcam)).
T3 construct: whole, on cells; Target on CHO cells stably expressing CTLA4; also called huCTLA4
T3 sequence (P16410 36-223): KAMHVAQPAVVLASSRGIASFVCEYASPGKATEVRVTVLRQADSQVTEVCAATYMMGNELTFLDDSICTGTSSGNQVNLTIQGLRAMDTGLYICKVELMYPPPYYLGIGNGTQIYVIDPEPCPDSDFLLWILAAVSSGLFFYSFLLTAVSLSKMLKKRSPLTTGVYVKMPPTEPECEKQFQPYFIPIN

| Fold change to WT CD80 [fold] | Binder |
| --- | --- |
| 0.6 | B1 |
| 0.6 | B2 |
| 0.9 | B3 |
| 0.1 | B4 |
| 0.7 | B5 |
| 1.1 | B6 |
| 0.9 | B7 |
| 0.9 | B8 |
| 1 | B9 |

Each binder was assayed against T1, TIGIT (assay: flow cytometry on cells expressing TIGIT, Fc fusion at 100 nM).

| MFI at 100 nM [MFI] | Binder |
| --- | --- |
| 2010 | B10 |

The binders below were run against T4, human PD-L1 expressed on CHO cells (human, UniProt Q9NZQ7 19-290) (assay: flow cytometry; MFI on PD-L1 cells over MFI on CD28 (Jurkat) cells at 33.3 nM).
T4 construct: whole, on cells; Target on CHO cells stably expressing PD-L1; also called huPD-L1
T4 sequence (Q9NZQ7 19-290): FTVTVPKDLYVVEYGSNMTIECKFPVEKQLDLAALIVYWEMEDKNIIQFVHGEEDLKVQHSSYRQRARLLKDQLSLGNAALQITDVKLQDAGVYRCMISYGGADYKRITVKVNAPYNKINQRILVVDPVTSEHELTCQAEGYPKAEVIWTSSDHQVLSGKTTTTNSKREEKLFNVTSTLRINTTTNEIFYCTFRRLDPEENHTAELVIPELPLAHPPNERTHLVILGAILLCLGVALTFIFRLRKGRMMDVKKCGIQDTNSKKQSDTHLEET

| Ratio of PDL1:CD28 [ratio] | Binder |
| --- | --- |
| 23.9 | B1 |
| 88.8 | B2 |
| 22.6 | B3 |
| 6.4 | B4 |
| 49.1 | B5 |
| 9.5 | B6 |
| 14 | B7 |
| 79.4 | B8 |
| 6.5 | B9 |

What follows are binders tested against T5, human PD-L1 (huPD-L1), full-length, stably expressed on CHO cells (human, UniProt Q9NZQ7 19-290) (assay: flow cytometry, CHO cells expressing huPD-L1).
T5 construct: whole, on cells
T5 sequence (Q9NZQ7 19-290): as above

| MFI at 33.3 nM [MFI] | Binder |
| --- | --- |
| 9180 | B11 |
| 8640 | B12 |

These binders were tested against T6, human PD-L1 (human, UniProt Q9NZQ7 19-290) (assay: flow cytometry, CHO cells stably expressing PD-L1).
T6 construct: also called huPD-L1; CD274
T6 sequence (Q9NZQ7 19-290): as above

| Fold change to WT CD80 [fold] | MFI at 33.3 nM [MFI] | Binder |
| --- | --- | --- |
| 63.5 | 3270 | B13 |
| 87 | 4480 | B14 |
| 62.7 | 3230 | B15 |
| 368 | 18900 | B16 |
| 372 | 19200 | B17 |
| 77 | 3970 | B18 |
| 21.5 | 1110 | B19 |
| 285 | 14700 | B20 |

What follows are binders tested against T7, CD28 endogenously expressed on Jurkat/IL2 reporter cells (human, UniProt P10747 19-220) (assay: flow cytometry, Jurkat cells (CD28), Fc fusion at 33.3 nM).
T7 construct: whole, on cells; Target on Jurkat cells; also called Jurkats (CD28)

| MFI at 33.3 nM [MFI] | Binder |
| --- | --- |
| 1080 | B1 |
| 118 | B2 |
| 641 | B3 |
| 118 | B4 |
| 246 | B5 |
| 701 | B6 |
| 411 | B7 |
| 331 | B8 |
| 366 | B9 |

These binders were tested against T4, human PD-L1 expressed on CHO cells (assay: flow cytometry, CHO cells stably expressing PD-L1, Fc fusion at 33.3 nM).

| MFI at 33.3 nM [MFI] | Binder |
| --- | --- |
| 25900 | B1 |
| 10500 | B2 |
| 14500 | B3 |
| 754 | B4 |
| 12100 | B5 |
| 6670 | B6 |
| 5770 | B7 |
| 26300 | B8 |
| 2370 | B9 |

The binders below were run against T4, human PD-L1 expressed on CHO cells (assay: flow cytometry, CHO cells stably expressing PD-L1; MFI relative to WT CD80 ECD-Fc (Abcam)).

| Fold change to WT CD80 [fold] | Binder |
| --- | --- |
| 203 | B1 |
| 81.9 | B2 |
| 113 | B3 |
| 5.9 | B4 |
| 94.4 | B5 |
| 52.1 | B6 |
| 45 | B7 |
| 205 | B8 |
| 18.5 | B9 |

What follows are binders tested against T3, human CTLA4 expressed on CHO cells (assay: flow cytometry, CHO cells stably expressing CTLA4, Fc fusion at 33.3 nM).

| MFI at 33.3 nM [MFI] | Binder |
| --- | --- |
| 23900 | B1 |
| 26100 | B2 |
| 34600 | B3 |
| 2340 | B4 |
| 30300 | B5 |
| 43800 | B6 |
| 34700 | B7 |
| 36500 | B8 |
| 42100 | B9 |

Each binder was assayed against T8, human CTLA4 (huCTLA4), full-length, stably expressed on CHO cells (human, UniProt P16410 36-223) (assay: flow cytometry, CHO cells expressing huCTLA4).
T8 construct: whole, on cells
T8 sequence (P16410 36-223): as the sequence (P16410 36-223) above

| MFI at 33.3 nM [MFI] | Binder |
| --- | --- |
| 16000 | B11 |

What follows are binders tested against human CD28 (human, UniProt P10747 19-220) (assay: flow cytometry, Jurkat cells (CD28)).

| Fold change to WT CD80 [fold] | MFI at 33.3 nM [MFI] | Binder |
| --- | --- | --- |
| 0.5 | 14.6 | B13 |
| 0.4 | 13.8 | B14 |
| 0.5 | 15.7 | B15 |
| 3.6 | 112 | B16 |
| 35.4 | 1110 | B17 |
| 0.5 | 16 | B18 |
| 0.5 | 14.2 | B19 |
| 0.4 | 14.1 | B20 |

These binders were tested against T2, CD226 (assay: flow cytometry on cells expressing CD226, Fc fusion at 100 nM).

| MFI at 100 nM [MFI] | Binder |
| --- | --- |
| 2020 | B10 |

The binders below were run against T7, CD28 endogenously expressed on … (assay: flow cytometry, Jurkat cells (CD28); MFI relative to WT CD80 ECD-Fc (Abcam)).

| Fold change to WT CD80 [fold] | Binder |
| --- | --- |
| 1.5 | B1 |
| 0.2 | B2 |
| 0.9 | B3 |
| 0.2 | B4 |
| 0.3 | B5 |
| 1 | B6 |
| 0.6 | B7 |
| 0.5 | B8 |
| 0.5 | B9 |

These binders were tested against T9, CD28, endogenously expressed on Jurkat/IL2 reporter cells (human, UniProt P10747 19-220) (assay: flow cytometry, Jurkat/IL2 reporter cells (endogenous CD28)).
T9 construct: whole, on cells

| MFI at 33.3 nM [MFI] | Binder |
| --- | --- |
| 201 | B11 |
| 403 | B12 |

These binders were tested against T6, human PD-L1 (assay: flow cytometry; PD-L1 MFI over CD28 MFI).

| Ratio of PDL1:CD28 [ratio] | Binder |
| --- | --- |
| 224 | B13 |
| 325 | B14 |
| 206 | B15 |
| 169 | B16 |
| 17.2 | B17 |
| 248 | B18 |
| 77.9 | B19 |
| 1040 | B20 |

The binders below were run against T10, human CTLA-4 (human, UniProt P16410 36-223) (assay: flow cytometry, CHO cells stably expressing CTLA4).
T10 construct: also called huCTLA4
T10 sequence (P16410 36-223): as above

| Fold change to WT CD80 [fold] | MFI at 33.3 nM [MFI] | Binder |
| --- | --- | --- |
| 0.1 | 109 | B13 |
| 0.1 | 141 | B15 |
| 7.7 | 13400 | B16 |
| 11.8 | 20700 | B17 |
| 0.1 | 105 | B18 |
| 12.6 | 22000 | B19 |
| 11.8 | 20700 | B20 |
